Test [1] deals with CD22, the LL2 antigen on the surface of Raji B-lymphoma cells (UniProt P20273). Kind of test: Raji cell binding assay.
For test [2] the target is unchanged. Kind of test: cell-based or functional assay.
The target is the same in test [3]. Kind of test: cell surface binding assay, calculated from ID50 values.
The target in test [4] is WN, LL2 anti-idiotype antibody. Kind of test: WN competitive blocking assay, from ID50 against unmodified control F(ab′)2.
Test [5] deals with WN, LL2 anti-idiotype antibody. The test is described as follows: WN competitive blocking assay, F(ab′)2 competing with mLL2. Also noted: unit not given beside the values.

In turn, “DOX-LL2 (doxorubicin-dextran-LL2 F(ab′)2 conjugate of Example 9)” yielded an immunoreactivity (% of control values) in test [1] of 80%.

“cLL2Q (chimeric LL2 with the NVT to QVT mutation in VK FR1) (antibody)” had a rate of antibody internalization (Ke) by Raji cells in test [2] of 0.122.

For mLL2 F(ab′)2 fragment, the Immunoreactivity (%), cell binding in test [3] was 100%. The same measure, in the same setting: under “mLL2 F(ab′)2 fragment conjugated with dextran-DOX at the VK-appended carbohydrate” stands 41.9%.

murine LL2 monoclonal antibody yielded a rate of antibody internalization (Ke) by Raji cells in test [2] of 0.107.

B1: hLL2 F(ab′)2 fragment (protein, INN chains, looked up)
VH: QVQLVQSGAEVKKPGSSVKVSCKASGYTFTSYWLHWVRQAPGQGLEWIGYINPRNDYTEYNQNFKDKATITADESTNTAYMELSSLRSEDTAFYFCARRDITTFYWGQGTTVTVSS
VL: DIQLTQSPSSLSASVGDRVTMSCKSSQSVLYSANHKNYLAWYQQKPGKAPKLLIYWASTRESGVPSRFSGSGSGTDFTFTISSLQPEDIATYYCHQYLSSWTFGGGTKLEIK
modifications: F(ab')2
As to B1, in test [4], the Immunoreactivity, % of hLL2 came to 100%. For the same molecule, the ID50 in test [5] was 0.384.

The record behind these values is patent US20040258682A1.
